The target in assay [1] is SARS-CoV-2 Beta variant spike protein on pseudovirus (SARS-CoV-2), P0DTC2. Description: cell-based or functional assay.
For assay [2], the target named is SARS-CoV-2 Delta variant spike protein on pseudovirus (SARS-CoV-2), P0DTC2. The assay can be described thus: cell-based or functional assay.

B1: NCI-CoV-S2A9 (VNAR)
chain: ARVDQTPRSVTKETGESLTINCVLRDASYALGRTCWYRKKSGSTNEESISKGGRYVETVNSGSKSFSLRINDLTVEDGGTYRCGVSTPWSCDYGPLCFYAACGDGTVVTVN
Regarding B1, the values for the IC50 for neutralizing pseudovirus in assay [1] and in assay [2] were 2220 nM and 1880 nM, respectively.

The record behind these values is patent US20240417446A1.
